This assay deals with T1, wild-type ubiquitin (UniProt P0CG48 1-76).
T1 construct: ubiquitin, the cut product of the ubiquitin precursors; called 'wild-type ubiquitin'
Nature of the assay: SPR; USP21 immobilised by amine coupling on a CM5 chip; Biacore S200, A-B-A injection; 1 uM compound 18 as analyte A, then ubiquitin titrated in 1:2 dilutions from 25 uM; 15 °C. The following applies: both partners purified. For orientation: SPR reads the build-up and loss of mass on a sensor chip optically.

These results are taken from article PMC10009755 (Journal of Medicinal Chemistry, 2023).

B1: human USP21 (Q9UK80, 209-563) (domain or fragment, UniProt Q9UK80 209-563, looked up)
chain: SGHVGLRNLGNTCFLNAVLQCLSSTRPLRDFCLRRDFRQEVPGGGRAQELTEAFADVIGALWHPDSCEAVNPTRFRAVFQKYVPSFSGYSQQDAQEFLKLLMERLHLEINRRGRRAPPILANGPVPSPPRRGGALLEEPELSDDDRANLMWKRYLEREDSKIVDLFVGQLKSCLKCQACGYRSTTFEVFCDLSLPIPKKGFAGGKVSLRDCFNLFTKEEELESENAPVCDRCRQKTRSTKKLTVQRFPRILVLHLNRFSASRGSIKKSSVGVDFPLQRLSLGDFASDKAGSPVYQLYALCNHSGSVHYGHYTALCRCQTGWHVYNDSRVSPVSENQVASSEGYVLFYQLMQEPPR
notes: cDNA optimized for expression in E. coli; The His tag is thrombin-cleavable; also called recombinant USP21; source: E. coli BL21(DE3), purified (Ni-NTA, MonoS cation exchange, SEC)
On to B1, for which the binding result is given as “binds”.
